The supplement of paper PMC9112550, “Optimization of the antimicrobial peptide Bac7 by deep mutational scanning” (BMC Biology, 2022)
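Also: peptides expressed intracellularly from a pBAD plasmid library in pooled LB shake-flask culture, induced with 0.3% L-arabinose, DNA abundance read by NGS, three biological replicates, DESeq2 with apeglm shrinkage.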

These sequences were tested on Escherichia coli TOP10 (assay: shrunken log2 fold change of peptide-encoding DNA abundance (4.5 h post-induction vs induction); higher = less antimicrobial activity (less host growth inhibition)). Settings: time post-induction: 4.5 h; library: site-saturation at positions 5, 18, 19, 20.
In the case of RRIRQRPPRLPRPRPRPTSQPRP, the “shrunken log2 fold change” value is reported as -0.0461. In the case of RRIRPRPPRLPRPRPRPVGDPRP, the “shrunken log2 fold change” value is reported as 0.365. In the case of RRIRGRPPRLPRPRPRPCYKPRP, the “shrunken log2 fold change” value is reported as -0.295. RRIRPRPPRLPRPRPRPWPYPRP was tested, and the “shrunken log2 fold change” value was 0.0948. For RRIRPRPPRLPRPRPRPLLQPRP, the “shrunken log2 fold change” value was 0.16. For RRIRNRPPRLPRPRPRPEMIPRP, the “shrunken log2 fold change” value was -0.0601. With RRIRTRPPRLPRPRPRPYNHPRP the “shrunken log2 fold change” value was -0.138. For RRIRYRPPRLPRPRPRPRFPPRP, the “shrunken log2 fold change” value was -0.448. RRIRIRPPRLPRPRPRPKRFPRP was tested, and the “shrunken log2 fold change” value was 0.276. With RRIRARPPRLPRPRPRPRELPRP the “shrunken log2 fold change” value was 0.496. With RRIRSRPPRLPRPRPRPHDNPRP the “shrunken log2 fold change” value was -0.308. With RRIRRRPPRLPRPRPRPMCIPRP the “shrunken log2 fold change” value was -0.182. For RRIRNRPPRLPRPRPRPHCKPRP, the “shrunken log2 fold change” value was -0.249. RRIRARPPRLPRPRPRPNKWPRP was tested, and the “shrunken log2 fold change” value was -0.0519. For RRIRDRPPRLPRPRPRPIDQPRP, the “shrunken log2 fold change” value was -0.0222. With RRIRNRPPRLPRPRPRPKSQPRP the “shrunken log2 fold change” value was 0.0119. RRIRQRPPRLPRPRPRPTPCPRP was tested, and the “shrunken log2 fold change” value was -0.138. RRIRLRPPRLPRPRPRPKCMPRP was tested, and the “shrunken log2 fold change” value was -0.152. With RRIRFRPPRLPRPRPRPCYRPRP the “shrunken log2 fold change” value was -0.573. In the case of RRIRFRPPRLPRPRPRPIMIPRP, the “shrunken log2 fold change” value is reported as -0.113. For RRIRGRPPRLPRPRPRPSHWPRP, the “shrunken log2 fold change” value was 0.157. For RRIRRRPPRLPRPRPRPHEAPRP, the “shrunken log2 fold change” value was 0.0262. In the case of RRIRKRPPRLPRPRPRPSCGPRP, the “shrunken log2 fold change” value is reported as 0.817. For RRIRERPPRLPRPRPRPNLYPRP, the “shrunken log2 fold change” value was -0.022. With RRIRWRPPRLPRPRPRPYRNPRP the “shrunken log2 fold change” value was -0.552. In the case of RRIRLRPPRLPRPRPRPNADPRP, the “shrunken log2 fold change” value is reported as 0.126. RRIRPRPPRLPRPRPRPRYSPRP was tested, and the “shrunken log2 fold change” value was -0.354. For RRIRKRPPRLPRPRPRPHDGPRP, the “shrunken log2 fold change” value was 0.0431. In the case of RRIRPRPPRLPRPRPRPNQDPRP, the “shrunken log2 fold change” value is reported as -0.167. For RRIRNRPPRLPRPRPRPNDTPRP, the “shrunken log2 fold change” value was -0.236. In the case of RRIRVRPPRLPRPRPRPYDHPRP, the “shrunken log2 fold change” value is reported as -0.347. For RRIRYRPPRLPRPRPRPWGEPRP, the “shrunken log2 fold change” value was -0.102. For RRIRKRPPRLPRPRPRPAHEPRP, the “shrunken log2 fold change” value was 0.816. With RRIRTRPPRLPRPRPRPRTKPRP the “shrunken log2 fold change” value was 0.74. With RRIRPRPPRLPRPRPRPKMQPRP the “shrunken log2 fold change” value was 0.132. In the case of RRIRQRPPRLPRPRPRPGCFPRP, the “shrunken log2 fold change” value is reported as 0.0403. With RRIRTRPPRLPRPRPRPWRHPRP the “shrunken log2 fold change” value was -0.0184. With RRIRMRPPRLPRPRPRPMLIPRP the “shrunken log2 fold change” value was -0.00481. For RRIRQRPPRLPRPRPRPPLNPRP, the “shrunken log2 fold change” value was 0.633. With RRIRLRPPRLPRPRPRPAQMPRP the “shrunken log2 fold change” value was 0.122. In the case of RRIRDRPPRLPRPRPRPGVYPRP, the “shrunken log2 fold change” value is reported as 0.0379. For RRIRRRPPRLPRPRPRPPKEPRP, the “shrunken log2 fold change” value was 0.0931. For RRIRYRPPRLPRPRPRPHRLPRP, the “shrunken log2 fold change” value was -0.0157. In the case of RRIRQRPPRLPRPRPRPCDNPRP, the “shrunken log2 fold change” value is reported as -0.269. With RRIRRRPPRLPRPRPRPFEGPRP the “shrunken log2 fold change” value was 0.0216. In the case of RRIRRRPPRLPRPRPRPWFEPRP, the “shrunken log2 fold change” value is reported as 0.0607. In the case of RRIRARPPRLPRPRPRPPTTPRP, the “shrunken log2 fold change” value is reported as 0.775. With RRIRGRPPRLPRPRPRPMWWPRP the “shrunken log2 fold change” value was 0.184. In the case of RRIRGRPPRLPRPRPRPLCLPRP, the “shrunken log2 fold change” value is reported as 0.437. With RRIRWRPPRLPRPRPRPFPYPRP the “shrunken log2 fold change” value was -0.44. In the case of RRIRKRPPRLPRPRPRPESWPRP, the “shrunken log2 fold change” value is reported as 1.02. In the case of RRIRNRPPRLPRPRPRPCGNPRP, the “shrunken log2 fold change” value is reported as -0.0905. With RRIRVRPPRLPRPRPRPTVSPRP the “shrunken log2 fold change” value was -0.131. In the case of RRIRHRPPRLPRPRPRPKWHPRP, the “shrunken log2 fold change” value is reported as -0.108. With RRIRFRPPRLPRPRPRPLPWPRP the “shrunken log2 fold change” value was -0.195. In the case of RRIRCRPPRLPRPRPRPRVYPRP, the “shrunken log2 fold change” value is reported as -0.217. RRIRVRPPRLPRPRPRPSNCPRP was tested, and the “shrunken log2 fold change” value was -0.225. For RRIRDRPPRLPRPRPRPAYCPRP, the “shrunken log2 fold change” value was 0.00854. With RRIRQRPPRLPRPRPRPFHYPRP the “shrunken log2 fold change” value was -0.996. With RRIRRRPPRLPRPRPRPPLAPRP the “shrunken log2 fold change” value was 1.18. With RRIRHRPPRLPRPRPRPEVEPRP the “shrunken log2 fold change” value was -0.00133. In the case of RRIRNRPPRLPRPRPRPIDTPRP, the “shrunken log2 fold change” value is reported as -0.0154. RRIRPRPPRLPRPRPRPQWQPRP was tested, and the “shrunken log2 fold change” value was -0.109. With RRIRYRPPRLPRPRPRPDKGPRP the “shrunken log2 fold change” value was -0.0723. With RRIRIRPPRLPRPRPRPKPAPRP the “shrunken log2 fold change” value was 0.243. RRIRARPPRLPRPRPRPPDPPRP was tested, and the “shrunken log2 fold change” value was 1. In the case of RRIRSRPPRLPRPRPRPFSLPRP, the “shrunken log2 fold change” value is reported as -0.506. For RRIRRRPPRLPRPRPRPWHWPRP, the “shrunken log2 fold change” value was 0.183. RRIRRRPPRLPRPRPRPMPEPRP was tested, and the “shrunken log2 fold change” value was 0.124. For RRIRNRPPRLPRPRPRPNEGPRP, the “shrunken log2 fold change” value was 0.000589. In the case of RRIRWRPPRLPRPRPRPVAQPRP, the “shrunken log2 fold change” value is reported as 0.386. RRIRQRPPRLPRPRPRPYYAPRP was tested, and the “shrunken log2 fold change” value was -0.898. With RRIRQRPPRLPRPRPRPNSQPRP the “shrunken log2 fold change” value was 0.229. RRIRWRPPRLPRPRPRPPIKPRP was tested, and the “shrunken log2 fold change” value was -0.0713. With RRIRYRPPRLPRPRPRPSCHPRP the “shrunken log2 fold change” value was -0.0195. With RRIRQRPPRLPRPRPRPPAKPRP the “shrunken log2 fold change” value was 0.358. For RRIRLRPPRLPRPRPRPMMPPRP, the “shrunken log2 fold change” value was -0.174. In the case of RRIRHRPPRLPRPRPRPRQHPRP, the “shrunken log2 fold change” value is reported as 0.0285. RRIRDRPPRLPRPRPRPSKDPRP was tested, and the “shrunken log2 fold change” value was -0.242. RRIRMRPPRLPRPRPRPTWPPRP was tested, and the “shrunken log2 fold change” value was 0.837. RRIRVRPPRLPRPRPRPVLDPRP was tested, and the “shrunken log2 fold change” value was -0.145. RRIRMRPPRLPRPRPRPVSQPRP was tested, and the “shrunken log2 fold change” value was 0.712. With RRIRVRPPRLPRPRPRPSHAPRP the “shrunken log2 fold change” value was -0.24. In the case of RRIRTRPPRLPRPRPRPWLRPRP, the “shrunken log2 fold change” value is reported as -0.161. In the case of RRIRCRPPRLPRPRPRPMDRPRP, the “shrunken log2 fold change” value is reported as -0.0115. In the case of RRIRSRPPRLPRPRPRPAWCPRP, the “shrunken log2 fold change” value is reported as 0.545. With RRIRGRPPRLPRPRPRPHCCPRP the “shrunken log2 fold change” value was 0.0841. For RRIRMRPPRLPRPRPRPAGVPRP, the “shrunken log2 fold change” value was 0.688. For RRIRIRPPRLPRPRPRPHIKPRP, the “shrunken log2 fold change” value was -1.12. RRIRHRPPRLPRPRPRPYYWPRP was tested, and the “shrunken log2 fold change” value was -0.0132. In the case of RRIRARPPRLPRPRPRPRPCPRP, the “shrunken log2 fold change” value is reported as 0.426. For RRIRWRPPRLPRPRPRPNCLPRP, the “shrunken log2 fold change” value was 0.257. In the case of RRIRIRPPRLPRPRPRPGIRPRP, the “shrunken log2 fold change” value is reported as -0.0416. In the case of RRIRFRPPRLPRPRPRPRVHPRP, the “shrunken log2 fold change” value is reported as -0.0984. RRIRWRPPRLPRPRPRPDPGPRP was tested, and the “shrunken log2 fold change” value was -0.041. With RRIRFRPPRLPRPRPRPQSMPRP the “shrunken log2 fold change” value was -0.434. RRIRNRPPRLPRPRPRPLEMPRP was tested, and the “shrunken log2 fold change” value was -0.0434. With RRIRCRPPRLPRPRPRPIIHPRP the “shrunken log2 fold change” value was -0.799. For RRIRGRPPRLPRPRPRPPVDPRP, the “shrunken log2 fold change” value was 0.953. RRIRIRPPRLPRPRPRPEEHPRP was tested, and the “shrunken log2 fold change” value was 0.023. RRIRGRPPRLPRPRPRPKLMPRP was tested, and the “shrunken log2 fold change” value was 1. In the case of RRIRMRPPRLPRPRPRPPIDPRP, the “shrunken log2 fold change” value is reported as 0.0677. In the case of RRIRCRPPRLPRPRPRPFYRPRP, the “shrunken log2 fold change” value is reported as -0.313. For RRIRNRPPRLPRPRPRPTWKPRP, the “shrunken log2 fold change” value was 0.0378. In the case of RRIRIRPPRLPRPRPRPFRVPRP, the “shrunken log2 fold change” value is reported as -0.369. For RRIRDRPPRLPRPRPRPVYPPRP, the “shrunken log2 fold change” value was -0.089. RRIRPRPPRLPRPRPRPYQVPRP was tested, and the “shrunken log2 fold change” value was -0.203. With RRIRHRPPRLPRPRPRPNMLPRP the “shrunken log2 fold change” value was -0.387. With RRIRERPPRLPRPRPRPNKRPRP the “shrunken log2 fold change” value was -0.164.
